Where a chain is given by its changes, count along the chain named.
Assays:
Type in all cases: biochemical
[1] = HTP-analysis of yeast culture supernatants, no challenge (MUGal hydrolysis); conditions: activity of the variant/activity of Rd2BB (SEQ ID NO: 10), yeast supernatant
Summary of the method: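 Activity read as 4-methylumbelliferyl α-D-galactopyranoside hydrolysis: fluorescence (355/448 nm) after sodium carbonate stop, following 30-180 min at 37° C with 2 mM MUGal stock at pH 4.6–4.8. Enzyme source is unchallenged culture supernatant of INVSc1 yeast expressing GLA variants, grown 66-84 h at 30° C.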

[2] = HTP-analysis of supernatants pretreated with acid (MUGal hydrolysis); conditions: challenge at pH 4.2; activity of the variant/activity of Rd2BB (SEQ ID NO: 10); yeast supernatant
Summary of the method: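 Supernatants from INVSc1 yeast secreting GLA variants were challenged at 37° C. for 1-3 h in McIlvaine buffer at pH 3.3-4.3. Residual activity was then measured on 4 mM MUGal substrate stock at pH 4.8 with citrate buffer pH 4.3, over 30-180 min at 37° C. Reactions were quenched with sodium carbonate and read by fluorescence (Ex 355/Em 448 nm).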

[3] = HTP-analysis of supernatants pretreated with base (MUGal hydrolysis); conditions: challenge at pH 7.6; activity of the variant/activity of Rd2BB (SEQ ID NO: 10); yeast supernatant
Summary of the method: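 GLA variants were secreted by transformed INVSc1 yeast grown 66-84 h at 30° C. Supernatants were exposed to neutral-to-basic buffers (pH 7.0-9.7) at 37° C for 1-18 h, then assayed with MUGal in acidic citrate/McIlvaine buffer, with fluorescence read after quenching.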

B1: 195 (protein)
chain: LDNGLARTPTMGWLHWERFMCNLDCQEEPDSCISEKLFMEMAELMVSEGWKDAGYEYLCIDDCWMAPQRDSEGRLQADPQRFPHGIRQLANYVHSKGLKLGIYADVGNKTCAGFPGSFGYYDIDAQTFADWGVDLLKFDGCYCDSLENLADGYKHMSLALNRTGRSIVYSCEWPLYMWPFQKPNYTEIRQYCNHWRNFADIDDSWSSIKSILDWTSFNQERIVDVAGPGGWNDPDMLVIGNFGLSWNQQVTQMALWAIMAAPLFMSNDLRHISPQAKALLQDKDVIAINQDPLGKQGYQLRQGDNFEVWERPLSGLAWAVAMINRQEIGGPRSYTIAVASLGKGVACNPACFITQLLPVKRKLGFYEWTSRLRSHINPTGTVLLQLENTMQMSKDLLL
modifications: Synthetic Polypeptide sequence of Variant No. 195 of mature Human GLA
What does the source list for B1?
Relative Activity of GLA Variants After No Challenge (NC) [1]: + (+ = 0.5 to 1.5 relative activity over Rd2BB (SEQ ID NO: 10)); Relative Activity of GLA Variants After Challenge at pH 4.2 [2]: + (+ = 0.5 to 1.5 relative activity over Rd2BB (SEQ ID NO: 10)); Relative Activity of GLA Variants After Challenge at pH 7.6 [3]: + (+ = 0.5 to 1.5 relative activity over Rd2BB (SEQ ID NO: 10))

B2: 199 (protein)
chain: B1 chain with S206A, A350G, T369S
modifications: Synthetic Polypeptide sequence of Variant No. 199 of mature Human GLA
For B2, which “Relative Activity of GLA Variants After No Challenge (NC)” value [1] is on record?
The value was “++ (++ = 1.5 to 2.5 relative activity over Rd2BB (SEQ ID NO: 10))”.

And the “Relative Activity of GLA Variants After Challenge at pH 4.2” value (“Relative Activity … at pH 4.2” below) [2]?
Its value is “++ (++ = 1.5 to 2.5 relative activity over Rd2BB (SEQ ID NO: 10))”.

What about the “Relative Activity of GLA Variants After Challenge at pH 7.6” value (from here on “Relative Activity … at pH 7.6”) [3] of the same molecule?
The value was “++ (++ = 1.5 to 2.5 relative activity over Rd2BB (SEQ ID NO: 10))”.

B3: 200 (protein)
chain: B1 chain with C143A, S206A
modifications: Synthetic Polypeptide sequence of Variant No. 200 of mature Human GLA
What does the source list for B3?
Relative Activity of GLA Variants After No Challenge (NC) [1]: + (+ = 0.5 to 1.5 relative activity over Rd2BB (SEQ ID NO: 10)); Relative Activity of GLA Variants After Challenge at pH 4.2 [2]: + (+ = 0.5 to 1.5 relative activity over Rd2BB (SEQ ID NO: 10)); Relative Activity of GLA Variants After Challenge at pH 7.6 [3]: + (+ = 0.5 to 1.5 relative activity over Rd2BB (SEQ ID NO: 10))

B4: 197 (protein)
chain: B1 chain with S206A, A350G, K362Q, T369A
modifications: Synthetic Polypeptide sequence of Variant No. 197 of mature Human GLA
Which “Relative Activity of GLA Variants After No Challenge (NC)” value [1] does the source give for B4 here?
The value was “++ (++ = 1.5 to 2.5 relative activity over Rd2BB (SEQ ID NO: 10))”.

And the “Relative Activity … at pH 4.2” value [2]?
The value was “++ (++ = 1.5 to 2.5 relative activity over Rd2BB (SEQ ID NO: 10))”.

What about the “Relative Activity … at pH 7.6” value [3] of the same molecule?
Its value is “++ (++ = 1.5 to 2.5 relative activity over Rd2BB (SEQ ID NO: 10))”.

B5: 196 (protein)
chain: B1 chain with S206A, A350G
modifications: Synthetic Polypeptide sequence of Variant No. 196 of mature Human GLA
With B5 as the molecule, how does the “Relative Activity of GLA Variants After No Challenge (NC)” value [1] read?
Its value is “+ (+ = 0.5 to 1.5 relative activity over Rd2BB (SEQ ID NO: 10))”.

And the “Relative Activity … at pH 4.2” value [2]?
Its value is “+ (+ = 0.5 to 1.5 relative activity over Rd2BB (SEQ ID NO: 10))”.

What about the “Relative Activity … at pH 7.6” value [3] of the same molecule?
Its value is “+ (+ = 0.5 to 1.5 relative activity over Rd2BB (SEQ ID NO: 10))”.

B6: 198 (protein)
chain: B1 chain with S206A, A350G, T369D
modifications: Synthetic Polypeptide sequence of Variant No. 198 of mature Human GLA
With B6 as the molecule, how does the “Relative Activity of GLA Variants After No Challenge (NC)” value [1] read?
The value was “++ (++ = 1.5 to 2.5 relative activity over Rd2BB (SEQ ID NO: 10))”.

What about the “Relative Activity … at pH 4.2” value [2] of the same molecule?
The value was “++ (++ = 1.5 to 2.5 relative activity over Rd2BB (SEQ ID NO: 10))”.

And the “Relative Activity … at pH 7.6” value [3]?
The value was “+++ (+++ = >2.5 relative activity over Rd2BB (SEQ ID NO: 10))”.
